The results in this text go back to publication PMC9430589.

Holding throughout (assay): EMSA
What all share (settings): EMSA: 20 mM Tris-HCl pH 8.0, 1 mM MgCl2, 20 mM KCl, 10 mM Na phosphate pH 8.0, 10% glycerol, 500 nM heparin, 1 nM RNA, 37 C 1 h (PNPase: TMK, 50 mM Tris-HCl pH …)
A general note: In EMSA bound probe runs differently from free probe, usually more slowly.

In data set [1] the target is T1, RhlB (DEAD box RNA helicase) (Deinococcus radiodurans R1) (UniProt Q9RXH8).
T1 sequence: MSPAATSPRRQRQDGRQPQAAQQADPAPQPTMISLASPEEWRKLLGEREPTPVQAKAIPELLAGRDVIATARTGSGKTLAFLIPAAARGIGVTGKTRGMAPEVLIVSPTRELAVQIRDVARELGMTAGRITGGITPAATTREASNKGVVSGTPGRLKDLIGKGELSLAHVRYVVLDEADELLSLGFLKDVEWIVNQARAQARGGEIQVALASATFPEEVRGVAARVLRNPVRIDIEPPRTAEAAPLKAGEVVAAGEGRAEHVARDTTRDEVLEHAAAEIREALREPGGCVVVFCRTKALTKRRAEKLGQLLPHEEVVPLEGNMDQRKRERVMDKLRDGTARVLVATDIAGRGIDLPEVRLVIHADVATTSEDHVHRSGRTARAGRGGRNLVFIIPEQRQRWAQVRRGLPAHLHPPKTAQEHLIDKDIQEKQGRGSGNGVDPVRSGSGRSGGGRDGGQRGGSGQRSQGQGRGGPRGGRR

Data set [2] addresses T2, Rho transcription termination factor (Deinococcus radiodurans R1) (UniProt P52153).
T2 sequence: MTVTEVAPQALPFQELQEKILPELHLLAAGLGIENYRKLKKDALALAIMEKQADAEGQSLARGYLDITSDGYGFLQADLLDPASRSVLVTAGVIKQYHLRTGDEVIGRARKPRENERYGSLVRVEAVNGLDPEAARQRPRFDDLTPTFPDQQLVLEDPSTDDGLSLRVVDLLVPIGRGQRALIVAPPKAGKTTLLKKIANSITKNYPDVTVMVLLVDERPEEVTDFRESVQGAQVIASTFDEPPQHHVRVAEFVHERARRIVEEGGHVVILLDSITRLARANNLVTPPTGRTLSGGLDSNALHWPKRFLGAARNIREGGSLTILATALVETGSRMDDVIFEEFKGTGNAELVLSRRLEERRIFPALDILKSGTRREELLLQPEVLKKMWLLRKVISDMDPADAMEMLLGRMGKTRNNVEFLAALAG

In data set [3] the target is T3, RpsA (ribosomal protein S1) (Deinococcus radiodurans R1) (UniProt Q9RSY6).
T3 sequence: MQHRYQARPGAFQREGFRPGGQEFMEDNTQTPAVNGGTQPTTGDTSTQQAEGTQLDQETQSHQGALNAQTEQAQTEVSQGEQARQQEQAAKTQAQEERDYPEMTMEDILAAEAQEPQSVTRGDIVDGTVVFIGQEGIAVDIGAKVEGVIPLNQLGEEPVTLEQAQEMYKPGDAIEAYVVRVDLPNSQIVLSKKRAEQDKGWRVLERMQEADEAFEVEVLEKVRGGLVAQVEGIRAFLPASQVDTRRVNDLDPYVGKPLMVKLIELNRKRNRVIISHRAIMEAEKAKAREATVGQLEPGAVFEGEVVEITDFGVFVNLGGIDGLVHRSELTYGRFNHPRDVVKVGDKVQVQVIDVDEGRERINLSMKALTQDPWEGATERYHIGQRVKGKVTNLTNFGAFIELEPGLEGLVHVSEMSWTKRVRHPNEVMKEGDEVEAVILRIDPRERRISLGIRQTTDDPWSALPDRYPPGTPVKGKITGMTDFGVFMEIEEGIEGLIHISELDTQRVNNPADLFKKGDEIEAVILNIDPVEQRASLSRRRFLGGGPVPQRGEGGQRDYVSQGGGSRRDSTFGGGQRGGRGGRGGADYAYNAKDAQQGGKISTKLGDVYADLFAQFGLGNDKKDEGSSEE

Take “NNNGNNNNNGNNNNNGNNNNNGNN [8-oxoG x1 24-mer (random N, degenerate)]”: the dissociation constant Kd (commonly the free concentration of one partner at which half of the binding sites on the other are occupied at equilibrium, for simple one-to-one binding) in data set [1] (8-oxoG at position 16) came to 0.383 µM; in data set [2] (8-oxoG at position 16), 1.88 µM; in data set [3] (8-oxoG at position 16), 1.71 µM.
On to “NNNGNNNNNGNNNNNGNNNNNGNN [8-oxoG x4 24-mer (random N, degenerate)]”, for which, in data set [1] (8-oxoG at positions 4, 10, 16, 22), the Kd stood at 0.341 µM.
Take “NNNGNNNNNGNNNNNGNNNNNGNN [8-oxoG x3 24-mer (random N, degenerate)]”: the dissociation constant (Kd) in data set [1] (8-oxoG at positions 10, 16, 22) is 0.351 µM.
In the case of “NNNGNNNNNGNNNNNGNNNNNGNN [Ctrl 24-mer (random N, degenerate)]”, the figures for the Kd in data set [1], in data set [2] and in data set [3] were 3.01 µM, 3.94 µM and 5.44 µM, respectively.
“NNNGNNNNNGNNNNNGNNNNNGNN [8-oxoG x2 24-mer (random N, degenerate)]” returned a Kd in data set [1] (8-oxoG at positions 16, 22) of 0.355 µM.
